Laboratory results reported in the DeepSol protein solubility set.

Assay: soluble on expression in E. coli; label from the status in PepcDB or PDB records

Sequence | soluble on expression in E. coli
MSLNEIDKSVDIGFLRILDVIKKVKTPKGGIEVLRTLIDFTPKIENALNLATKSHKGQYRKSGEPYIVHPICVASVVAFCGGDEAMVCAALLHDVVEDTPCEIETIEREFGQDVANLVDALTKITEIRKEELGVSSQDPRMVVSALTFRKILISAIQDPRALVVKISDRLHNMLTLDALPHDKQVRISKETLAVYAPIASRLGMSSIKNELEDKSFYYIYPEEYKNIKEYLHKNKQSLLLKLNAFASKLEKKLFDSGFSHSDFKLVTRVKRPYSIYLKMQRKGAVNIDEILDLLAIRILLKNPIDCYKVLGIIHLNFKPIVSRFKDYIALPKENGYKTIHTTIFDESSVYEVQIRTFDMHMGAEYGNSAHWKYKAGGVDHEEHHEGMRWLQNFKYHDSDLKNDPKEFYELAKNDLYREDIVVFSPHGDTYTLPVGAIALDFAYMVHSDLGDKATDAYINSKKALLNQELRSGDVVKIIKGDKVIPRFIWMDQLKTSKAKNHLRIQRRNRLKEIDTKSMINILATFFGRSVFEDADLKDYKNFEEKLTDCGVETTLTEAMKSFENLAKLTEEIENKVFSLKEDAILEYQEMSLWTRGLRYLGFKTNVLNFLTPNRQWQCKELEHFSVCSSNALEIKQVLLNDCCYPKYGDEIIAIVTDLKDPKAIAHHKFCKKAIAEVDAKVPMVYIEWHKRDRTIYKMMFYLGEKKSVLASLLTFLNRNECNIVGVSYLGYKDKYSSHCEVSFEIATDKADWMRALINRKYQDRIVELSSLDDAYELQEGHHHHHH | soluble
MAEPLQPDPGAAEDAAAQAVETPGWKAPEDAGPQPGSYEIRHYGPAKWVSTSVESMDWDSAIQTGFTKLNSYIQGKNEKEMKIKMTAPVTSYVEPGSGPFSESTITISLYIPSEQQFDPPRPLESDVFIEDRAEMTVFVRSFDGFSSAQKNQEQLLTLASILREDGKVFDEKVYYTAGYNSPVKLLNRNNEVWLIQKNEPTKENE | soluble
SELPVRCRNISGTLYKNRLGSGGRGRCIKQGENWYSPTEFEAMAGRASSKDWKRSIRYAGRPLQCLIQDGILNP | soluble
MSTSTAPSSASSDADSLNHDENPIKAVIFDYGEVMWMQSRNVHVYRKIEEDNKLFDNSLIPTLVSKELSSILPKGFQEDLLTGIYTAKDFDRLFLSAYNRKFGSQVESLKFFSATEYDNDAVYEEAVLTACQKLRERGVKTILMLDTYHVDEKRNGRRIPNMEKYFDHVIESCKEGVKKPDPRFYQIALDCVDVQPEEVIYIDDSKINCESAAVLGIRYIQVFNSMDMLEDLQEILGFDLD | not soluble
VQLSPDLLATLPEPASPGRQACGRRHKKRTFLRPRIIGGSSSLPGSHPWLAAIYIGDSFCAGSLVHTCWVVSAAHCFSHSPPRDSVSVVLGQHFFNRTTDVTQTFGIEKYIPYTLYSVFNPSDHDLVLIRLKKKGDRCATRSQFVQPICLPEPGSTFPAGHKCQIAGWGHLDENVSGYSSSLREALVPLVADHKCSSPEVYGADISPNMLCAGYFDCKSDACQGDSGGPLACEKNGVAYLYGIISWGDGCGRLHKPGVYTRVANYVDWINDRIRPPRRLVAPS | soluble
MGSDKIHHHHHHENLYFQGMARTAEEQANHDLVIEMYNKVLIAMDSSAVDRYIAPGYVQHSSLAEPSVEALKGFLDRVRAESPDARQTIHRSFVDGDHVITHTHVERWPGDAGLAVVDIFRVEGGMIVEHWDVIQDVPANPVNPNSMF | soluble
MTSNDADIKATVCVVTYNQVEYIEQCLQSLIDQITNFEFEIIVGDDFSTDGTRRIVEDFQRKYPHVIKPIFHSRNVGAAVNFNAVHGSARGKFVAHVDGDDYMLPNKLRSQVDFMERNPNCNISWHRMYVSYGSNIKEDLLDLNNFRQLCFTRADILKFITIGMNSSKMYRAETMNFQRPDFPMLDYFANVEQIGDGQACFISSEPLGVYRAGIGIAKNDFRVKEALNSSFLYFLSKYPKLSNEINQSVLLLLLMAFKNRRYTELSLFLKVYLKSFSFFTPWKLYKDYEFIKMLRLPKLEHHHHHH | not soluble
SNKDLVHIGVLQYVEHPSLSATRKGFIEELKEEGYVDGKNIKIDYQNAQGDQSNLQTISQSLIEDNDVMLAIATPAAQSLSSLTKGKPILFTAVTDPVSAKLVKSMDNVGGNVTGTSDMSPINKQVELLKKVFPNTKKVGIMYTTSERNSEVQVEEAKKYFKEAGIETVIKGISSTNDIQDTAKSLMSQTEVIFIPTDNTIVSAINTLVDLSKETKVPVVGSDAGSVEKGVLFTYGTNYEALGRQTGKLAGRVLRGEKVKDIDAEYPKTLNVVVNHDMAKKLGIDVSSISDEESKVSTKDDKPIAK | not soluble
MSLLAQLDQKIAANGGLIVSCQPVPDSPLDKPEIVAAMALAAEQAGAVAIRIEGVANLQATRAVVSVPIIGIVKRDLEDSPVRITAYIEDVDALAQAGADIIAIDGTDRPRPVPVETLLARIHHHGLLAMTDCSTPEDGLACQKLGAEIIGTTLSGYTTPETPEEPDLALVKTLSEAGCRVIAEGRYNTPAQAADAMRHGAWAVTVGSAITRLEHICQWYNTAMKKAVL | not soluble
MSLQFDARNMALLESLVVANVYLAPEKLQEELGISKRTLQYDVEKINKELDNIGLDGIQSVRGQGYYLLEDEKSTIKEILGNREASHKVFSASERRIRILFFLLVTDARVIIDTINECNEVSRNTSLQDIKQLKLALKQFNLELAYDRKNGNMVLGDERSIRQFFIHYCMNNEEIATADQLLDLMKINPMIKNQELFPKLDTIFEILAVTEKKIGIRYTDEVLERIGIMIFFFKERMKRNCYLNEQEEHEVESFEIAQEIYQQLQQSENFKINHAEITYLGKLLLGASRLNDDAAAEGKLDLIVEKIIAEFERLACVNFEDHRNLKKDLLLHLQPAYYRLKFQIEWINPLRTDIKQSYSDVYEITKKSLEPLEDLLGETIPEDEIAYVTILFGGYLSRKNNEGHHHHHH | soluble
MAFKGYPVIDKDGNIYAGNQDGQLYAYTSTGSLKWTFPLNGFSSSSPAIDHNGNIYIGSGSGELFSISKNGDMNWSFYTDGPVRTAPLIDAKGTVYFGSDDMKVYAADANGNELWSYQTDSNVVSSPQLAEDGTLEHHHHHH | not soluble
MAHHHHHHMDNLFYYMIIQNDRIQPIIVRQPQTVIIHSQPKLPITLDLPPQNIILKNEDPQPIIVRQSNPNIIIEKSQNDFYNHPNFHIGLHDKVNSMSDINNTNIKEQPIKDNMIEDMQNINNADTQFYYNNQNVINENNVLPTHYSYLNNGVFNKEHNYDPYNFTLYSNK | not soluble
MSLGSLVIKKSIIAALVVALGIAGQSVQAESVPDETLQSEKVQTEKVQAEKTETDLFSPVEQIMNPFYPKYPPTKPATGEQAELIKRGEYLAKMGDCIACHTDVEGGTPAYAGGLPINTPFGLFYSPNITPDKETGIGNWTEKDFIRALKDGRDPKGRNYFPVFPYVYFSKITDDDARALYAYFMSIPPVKLKNKSLPFPFGVPGARFALWGWNLLFFFPQENSIEYDPDKSPEWNRGRYIVDTLGHCSMCHTPMNIFGSAKNRYYLTGSFIDGYWAPNITKYGLESASHQEVADVFKAGELINKAGPVAGPMAEVNHNSLSHLTEEDRLAIATYLKTVESEEYLGVSPSDLPPSVARGRQVYLKACLICHKDNKMGAPVIGDSASWYTRLKNSGLTGLYRHAIYGYNQMPVKGACVTCSDNDIISAVDYLLNASLTRSQWQDLASGGVKKYPASGKAVYNENCAVCHNEGKLGAPKIGDKVTWKPLIAQNMDVLIENTIRGKNHLPNGGCNHCSTDEVIEAIKYMVSQSKTEGNYSLWEGHHHHHH | not soluble
MAHHHHHHMRCFRASCCAPSPWQRACSTVASVSDTADLVIVRESPLDNVVLLEMNNGRANVLTPEFISAFLNKLSDLCDPDKSKCSGIILTSKSPGVFSAGLDLNELNTNLSQDRFAQYWSQFQKLFTTLHALPVPLVGAINGHAAAAGCIVALACDYRVMARRHPTKPTHLTIGIAAAKHGFVVPSYVAASMEHVVGFRKAEELLCMGLLLSAGEALKVGLVDEVVEHHDETVVPCLQFMEKLLELPSPAPYWMIKDLSRRHILAPLCTPALRTQDMVSFYNLFSNLQVKKMLAEHAQKFAKK | not soluble
KINDFSIKHGLTEKFVVSFAGTLGFSQDMEVIIRAANELKEYKDIVFIIVGNGVRLEESKKLAESLNLQNIRFIPSVPREIYPLVLHSSDVSLATLTKDVKTPVVPSKILSIMSAGIPVIAVMNLEGDAPKLVEKANAGFAIPAGDYKSLAEKILLLYKNPELRESLGRNGRRY | not soluble
MHHHHHHSSGVDLGTENLYFQSMGAGRRESEPRPTSARQLDGIRNIVLSNPKKRNTLSLAMLKSLQSDILHDADSNDLKVIIISAEGPVFSSGHDLKELTEEQGRDYHAEVFQTCSKVMMHIRNHPVPVIAMVNGLATAAGCQLVASCDIAVASDKSSFATPGVNVGLFCSTPGVALARAVPRKVALEMLFTGEPISAQEALLHGLLSKVVPEAELQEETMRIARKIASLSRPVVSLGKATFYKQLPQDLGTAYYLTSQAMVDNLALRDGQEGITAFLQKRKPVWSH | soluble
MGSDKIHHHHHHMAQMTPSQEPQSAAEYDDRTTAAVKSVLIEIGQILGSFKGKFAIIGGAVPWLLLANEDMPHVGTLDVDVGLDAEALGDGEYATLVGALQGHGYAQREGLRRFQLVRQVPARDGGEAIDVVVDFLMPRDAEIVRNNPPLISDFAVQRADGADLAMRFYQLVAVAGSMPDGGTNRVEIAVCSIPALLAMKGHALAGRYKQKDAYDIYYCVRNYPAGIEALAQECRPLLGHASGERGFLHIADKFDAFDGYGPTCVRRFVEDTQALGDRTPDQWQQDAFGQIDALLRAMALRG | not soluble
MSKIEIYNREEALLLIEKLNNSNIEIPILLMLTLGLRLGEATGLRWTDVDLNIGSVSVSQTLIYANNKIEFKEPKTSKSRRTLSAPDELIEKLKIEKLRQNKLKLQGILKNENNLVCLNKDYNPFLPATLRKSFHRFIKKNNLKNIRMHDLRHTNASLLLLGGTNMKVVSERLGHTDIQITMNRYSHVLEEMDKKASDNLSKILEHHHHHH | not soluble
MSLNKELIQHAAYAAIERILNEYFREENLYQVPPQNHQWSIQLSELETLTGEFRYWSAMGHHMYHPEVWLIDGKSKKITTYKEAIARILQHMAQSADNQTAVQQHMAQIMSDIDNSIHRTARYLQSNTIDYVEDRYIVSEQSLYLGHPFHPTPKSASGFSEADLEKYAPECHTSFQLHYLAVHQDVLLTRYVEGKEDQVEKVLYQLADIDISEIPKDFILLPTHPYQINVLRQHPQYMQYSEQGLIKDLGVSGDSVYPTSSVRTVFSKALNIYLKLPIHVKITNFIRTNDLEQIERTIDAAQVIASVKDEVETPHFKLMFEEGYRALLPNPLGQTVEPEMDLLTNSAMIVREGIPNYHADKDIHVLASLFETMPDSPMSKLSQVIEQSGLAPEAWLECYLNRTLLPILKLFSNTGISLEAHVQNTLIELKDGIPDVCFVRDLEGICLSRTIATEKQLVPNVVAASSPVVYAHDEAWHRLKYYVVVNHLGHLVSTIGKATRNEVVLWQLVAHRLMTWKKEYANNAVFVDCVEDLYQTPTIAAKANLMSKLNDCGANPIYTHIPNPICHNKEVSYCESEGHHHHHH | soluble
MSLTVLPVPDLLARALDRRAGLPGAGTTFFRAVHITETGGLWTLDVAGDAGILSLYTDLSAEAERDLAAQCGEAAGLSSVYLKRRPPEAKHLANVAREVLSPPDPLWGTARPEVTALEEGVPFLIRPGADLSVGLFSDARPARRWVRGHAAGQRVLNTFAYTCGFGLNAALAGAASVKNVDLSRKVLGWGQQNYALSGLAAPDHDFLYGDVFEWLTRLQRRGDLFDLVILDPPGFARSKAGTWRAEKDYGRLMAQASAVTAPGGEVLALLNHAGVSAGGLTHMVEQGLSTAGRRGHLTETLGPGRDYPGATHLKVQRWSLNEGGSHHHHHH | soluble
HETENAWRETEERLAATYQAATIGIAESDADGRLLRVNDAFCTMLGRSREQLLNMTFLDYTHEDDRDEEARCYARQVSGETDTYAIRKRAVKADGTVIYLDVYSSTVRDRTGRFRYGVRVLLDVT | not soluble
